Reference: paper PMC10355216, “The C-terminal tail of CSNAP attenuates the CSN complex” (Life Science Alliance, 2023)

Legend:
Experiment in all cases: peptide or protein array; peptides synthesized on a microarray, incubated with recombinant CSN, probed with anti-CSN3 and HRP-conjugated secondary antibody; spot intensity normalized to C-CSNAP (A1), averaged from six arrays
[1] = molecular target: C-CSNAP peptide with a D-amino acid at Leu50 (peptide array)
[2] = molecular target: C-CSNAP peptide with a D-amino acid at Phe51 (peptide array)
[3] = molecular target: C-CSNAP peptide with a D-amino acid at Asp53 (peptide array)
[4] = molecular target: C-CSNAP peptide with a D-amino acid at Asp52 (peptide array)
[5] = molecular target: C-CSNAP peptide with a D-amino acid at Asp55 (peptide array)
[6] = molecular target: C-CSNAP peptide with a D-amino acid at Asp54 (peptide array)

Measured: increase of the array signal over the original 16AA C-CSNAP peptide

recombinant COP9 signalosome complex (CSN) (from UniProt Q13098 1-491; Q9UNS2 1-423; Q92905 1-334; Q99627 2-209; Q8WXC6 1-57)
> 20%: [1] | [2] | [3] | [4] | [5] | [6]
